Measurements: the Human Domainome abundance scans (Beltran et al. 2025)
± gives the uncertainty stated by the source.

B1: Pre-mRNA-processing factor 40 homolog B, residues 274 to 332; numbered along this chain, Q6NWY9 (parent)
chain: SNREKAKQAFKELLRDKAVPSNASWEQAMKMVVTDPRYSALPKLSEKKQAFNAYKAQRE

Variants of: B1
Assay: abundance fitness (aPCA) (normalised: wild type 0, dead -1); higher = more abundant; growth selection in yeast, the domain comes from the species named
Conditions: Homo sapiens

Variant | abundance fitness
L14R | -0.71 ± 0.067
L14V | -0.385 ± 0.068
L14N | -0.376 ± 0.11
L14S | -0.384 ± 0.079
L14F | -0.683 ± 0.12
L14K | -0.408 ± 0.11
L14Q | -0.339 ± 0.12
L14E | -0.339 ± 0.096
L14P | -0.261 ± 0.1
L14Y | -0.925 ± 0.18
L14C | -0.483 ± 0.11
L14I | -1.05 ± 0.27
L14T | -0.547 ± 0.098
L14M | -0.639 ± 0.1
L14G | -0.403 ± 0.054
L14W | -0.963 ± 0.11
S24F | -0.654 ± 0.13
S24I | -0.65 ± 0.19
S24E | -0.306 ± 0.088
S24V | -0.644 ± 0.067
S24D | -0.355 ± 0.12
S24Y | -0.74 ± 0.18
S24A | -0.238 ± 0.063
S24P | -0.169 ± 0.13

Variant | abundance fitness
S24H | -0.344 ± 0.15
S24R | -0.671 ± 0.079
S24C | -0.371 ± 0.16
S24M | -0.591 ± 0.093
S24W | -1 ± 0.13
S24N | -0.447 ± 0.2
S24K | -0.229 ± 0.091
S24Q | -0.422 ± 0.1
S24G | -0.366 ± 0.064
N22W | -0.063 ± 0.1
N22F | -0.906 ± 0.24
N22M | -0.623 ± 0.19
N22G | -0.217 ± 0.062
N22T | -0.014 ± 0.082
N22P | -0.664 ± 0.13
N22K | -0.553 ± 0.11
N22Y | -0.57 ± 0.15
N22E | 0.03 ± 0.088
N22D | 0.05 ± 0.08
N22C | -0.211 ± 0.13
N22S | -0.036 ± 0.074
N22L | -0.446 ± 0.089
N22R | -0.505 ± 0.06
N22I | -1.04 ± 0.31

Variant | abundance fitness
N22Q | -0.217 ± 0.16
N22H | -0.179 ± 0.17
A18I | -0.536 ± 0.13
A18S | -0.089 ± 0.073
A18M | -0.096 ± 0.11
A18V | -0.367 ± 0.065
A18K | -0.043 ± 0.086
A18W | -0.473 ± 0.085
A18E | -0.012 ± 0.069
A18C | 0.007 ± 0.11
A18Y | -0.656 ± 0.19
A18Q | 0.101 ± 0.092
A18F | -0.539 ± 0.18
A18L | -0.127 ± 0.069
A18N | -0.067 ± 0.15
A18H | 0.074 ± 0.14
A18P | -0.606 ± 0.096
A18D | 0.045 ± 0.14
A18R | -0.035 ± 0.058
A18T | -0.282 ± 0.097
L13V | -0.511 ± 0.066
L13Q | -0.286 ± 0.14
L13N | -0.482 ± 0.11
L13M | 0.122 ± 0.097

Variant | abundance fitness
L13R | -0.491 ± 0.066
L13Y | -0.559 ± 0.16
L13T | -0.48 ± 0.093
L13H | -0.411 ± 0.13
L13D | -0.262 ± 0.1
L13K | -0.388 ± 0.11
L13C | -0.244 ± 0.12
L13W | -1.02 ± 0.12
L13E | -0.377 ± 0.074
L13G | -0.331 ± 0.056
L13A | -0.327 ± 0.063
L13F | -0.668 ± 0.13
L13I | -1.12 ± 0.28
Q27R | -0.342 ± 0.059
Q27N | -0.174 ± 0.15
Q27G | -0.358 ± 0.059
Q27A | -0.143 ± 0.091
Q27P | -0.531 ± 0.2
Q27F | -0.884 ± 0.23
Q27V | -0.297 ± 0.091
Q27T | 0.027 ± 0.11
Q27M | -0.297 ± 0.14
Q27I | -0.301 ± 0.2
Q27Y | -0.524 ± 0.15

Variant | abundance fitness
Q27S | -0.406 ± 0.11
Q27H | -0.096 ± 0.24
Q27K | -0.292 ± 0.12
Q27E | 0.115 ± 0.11
Q27C | -0.422 ± 0.11
Q27W | -1 ± 0.095
A28E | -0.431 ± 0.074
A28S | -0.413 ± 0.05
A28Q | -0.313 ± 0.065
A28F | -0.563 ± 0.068
A28G | -0.48 ± 0.055
A28T | -0.299 ± 0.054
A28R | -0.607 ± 0.05
A28W | -0.71 ± 0.068
A28I | -0.595 ± 0.071
A28N | -0.445 ± 0.077
A28L | -0.684 ± 0.048
A28V | -0.277 ± 0.056
A28K | -0.524 ± 0.063
A28D | -0.473 ± 0.072
A28M | -0.576 ± 0.062
A28H | -0.583 ± 0.067
D16Y | -0.888 ± 0.13
D16K | -0.699 ± 0.12

Variant | abundance fitness
D16S | -0.486 ± 0.069
D16N | -1.23 ± 0.19
D16A | -0.461 ± 0.079
D16M | -1.03 ± 0.17
D16C | -0.933 ± 0.1
D16L | -0.584 ± 0.075
D16Q | -0.443 ± 0.12
D16V | -0.716 ± 0.073
D16T | -0.351 ± 0.085
D16F | -1.05 ± 0.11
D16W | -0.579 ± 0.1
D16H | -1.03 ± 0.18
D16R | -0.7 ± 0.064
D16P | -0.875 ± 0.12
A23S | -0.313 ± 0.072
A23H | -0.591 ± 0.18
A23Y | -0.254 ± 0.12
A23M | -0.142 ± 0.096
A23R | -0.506 ± 0.068
A23T | -0.467 ± 0.1
A23V | -0.222 ± 0.065
A23I | -0.122 ± 0.13
A23C | -0.206 ± 0.083
A23Q | -0.528 ± 0.093

Variant | abundance fitness
A23N | -0.335 ± 0.12
A23P | -0.533 ± 0.13
A23K | -0.459 ± 0.1
A23D | -0.522 ± 0.091
A23G | -0.464 ± 0.054
A23F | -0.348 ± 0.14
S21K | 0.134 ± 0.12
S21G | -0.103 ± 0.074
S21V | 0.089 ± 0.073
S21E | -0.054 ± 0.12
S21D | -0.077 ± 0.1
S21P | -0.146 ± 0.1
S21F | 0.029 ± 0.11
S21T | 0.06 ± 0.093
S21L | 0.109 ± 0.087
S21W | -0.055 ± 0.13
S21R | -0.083 ± 0.073
S21H | -0.037 ± 0.47
S21M | 0.074 ± 0.11
S21C | -0.001 ± 0.1
S21N | -0.492 ± 0.16
S21Y | 0.005 ± 0.12
S21Q | 0.014 ± 0.13
